Non-standard residues stand in square brackets, D forms with d. No end group written: not given here. *: point of attachment. Palmitoyl = CCCCCCCCCCCCCCCC(=O)*; Myristoyl = CCCCCCCCCCCCCC(=O)*; Decanoyl = CCCCCCCCCC(=O)*; Dap = NC[C@H](N)C(=O)O; Sar = CNCC(=O)O
Assays:
[1] = biological target: T1, human GHS-R1a receptor (growth hormone secretagogue receptor 1a) (human, UniProt Q92847 1-366); assay: competitive displacement of 125I-ghrelin, membranes of HEK293T cells with transfected human GHS-R1a
T1 construct: whole, on cells; Functional assays: HEK-293T cells transiently transfected with human GHS-R1a; also called ghrelin receptor
T1 sequence (Q92847 whole entry): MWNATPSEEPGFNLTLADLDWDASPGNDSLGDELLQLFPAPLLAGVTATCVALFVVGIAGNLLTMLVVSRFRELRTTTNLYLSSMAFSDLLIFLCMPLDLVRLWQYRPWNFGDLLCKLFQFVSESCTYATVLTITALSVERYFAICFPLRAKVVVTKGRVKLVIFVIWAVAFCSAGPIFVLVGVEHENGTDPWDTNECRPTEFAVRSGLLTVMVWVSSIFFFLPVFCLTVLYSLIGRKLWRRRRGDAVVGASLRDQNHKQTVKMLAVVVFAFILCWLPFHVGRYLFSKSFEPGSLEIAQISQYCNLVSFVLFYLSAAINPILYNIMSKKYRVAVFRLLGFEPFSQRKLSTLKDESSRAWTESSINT
Protocol: Competitive binding studies were performed according to the principles of Motulsky and Neubig (Motulsky & Neubig, 2002). Isolated plasma membranes from the HEK293T cells with transfected human GHS-R1a receptor (Multispan, Hayward, Calif., USA) were used. […] The binding reaction was stopped by the addition of ice-cold washing buffer (20 mM Tris pH 7.4, 10 mM MgCl₂, 2.5 mM EDTA, 0.015% Triton X-100) followed by rapid filtration over GF/C filters (Whatman, Clifton, N.J., USA) presoaked with 0.5% PEI in binding buffer using a Brandel cell harvester (Brandel Inc., Gaithersburg, Md., USA). Bound radioactivity was determined by gamma counting (Wizard 1470 Automatic Gamma Counter; PerkinElmer Life and Analytical Sciences, Waltham, Mass.).

[2] = biological target: T1, human GHS-R1a receptor (growth hormone …); assay: cell-based or functional assay

| Binder | % of ghrelin binding [1] [%] | Ki [1] [nM] | Ca^2+ - EC50 [nM] (intracellular calcium mobilization, Fluo-4AM) [2] | IP1 - EC50 [nM] (inositol phosphate accumulation, IP-One HTRF) [2] |
| --- | --- | --- | --- | --- |
| XSXXLSPEHQKAQQRKESKKPPAKLQPR (not fully specified; sarcosine (Sar) at position 1; diaminopropionic acid N-octanoyl (Dpr-N-oct) at position 3; naphtylalanine (Nal) at position 4; Lys 24 N-palmitoyl (K(N-palm)), Synthetic ghrelin analog) [ghrelin analog no. 9, (Sar)S(Dpr-N-oct)(Nal)LSPEHQKAQQRKESKKPPAK(N-palm)LQPR] | 5 | 23.3 |  |  |
| XSXFLSPEHQKAQQRKESKKPPAKLQPR (sarcosine (Sar) at position 1; diaminopropionic acid N-myristoyl (Dpr-N-myr) at position 3, Synthetic ghrelin analog; also called analog 2) [ghrelin analog no. 2, (Sar)S(Dpr-N-myr)FLSPEHQKAQQRKESKKPPAKLQPR] | 54 | 2.1 | 36.6 | 7.1 |
| XSXXLSPEHQKAQQRKESKKPPAKLQPR (not fully specified; sarcosine (Sar) at position 1; diaminopropionic acid N-myristoyl (Dpr-N-myr) at position 3; dichlorophenylalanine (PheCl2) at position 4, Synthetic ghrelin analog; also called analog 14) [ghrelin analog no. 14, (Sar)S(Dpr-N-myr)(PheCl2)LSPEHQKAQQRKESKKPPAKLQPR] | 7 | 16.8 |  |  |
| GSXFLSPEHQKAQQRKESKKPPAKLQPR (diaminopropionic acid (Dpr) bearing octanoyl at position 3, Synthetic ghrelin analog) [Dpr^3ghrelin] | 169 | 0.68 |  | 16.3 |
| XSXXLSPEHQKAQQRKESKKPPAKLQPR (sarcosine (Sar) at position 1; diaminopropionic acid N-myristoyl (Dpr-N-myr) at position 3; cyclohexylalanine (Cha) at position 4, Synthetic ghrelin analog) [ghrelin analog no. 6, (Sar)S(Dpr-N-myr)(Cha)LSPEHQKAQQRKESKKPPAKLQPR] | 18 | 6.41 | 11.4 | 3.08 |
| XSXXLSPEHQKAQQRKESKKPPAKLQPR (not fully specified; sarcosine (Sar) at position 1; diaminopropionic acid N-octanoyl (Dpr-N-oct) at position 3; dichlorophenylalanine (PheCl2) at position 4, Synthetic ghrelin analog) [ghrelin analog no. 13, (Sar)S(Dpr-N-oct)(PheCl2)LSPEHQKAQQRKESKKPPAKLQPR] | 47 | 2.45 |  |  |
| XSXXLSPEHQKAQQRKESKKPPAKLQPR (sarcosine (Sar) at position 1; diaminopropionic acid N-decanoyl (Dpr-N-dec) at position 3; 1-naphtylalanine (1-Nal) at position 4, Synthetic ghrelin analog) [ghrelin analog no. 3, (Sar)S(Dpr-N-dec)(1-Nal)LSPEHQKAQQRKESKKPPAKLQPR] | 176 | 0.65 | 18.6 | 2.08 |
| XSXXLSPEHQKAQQRKESKKPPAKLQPR (sarcosine (Sar) at position 1; diaminopropionic acid N-decanoyl (Dpr-N-dec) at position 3; cyclohexylalanine (Cha) at position 4, Synthetic ghrelin analog) [ghrelin analog no. 5, (Sar)S(Dpr-N-dec)(Cha)LSPEHQKAQQRKESKKPPAKLQPR] | 110 | 1.04 | 10.6 | 3.28 |

More lines, now with the values ahead:

| % of ghrelin binding [1] [%] | Ki [1] [nM] | Ca^2+ - EC50 [nM] (intracellular calcium mobilization, Fluo-4AM) [2] | IP1 - EC50 [nM] (inositol phosphate accumulation, IP-One HTRF) [2] | Binder |
| --- | --- | --- | --- | --- |
| 19 | 5.99 |  |  | [Sar]S[Dap](Decanoyl)FLSPEHQKAQQRK(Palmitoyl)ES [ghrelin analog no. 15, (Sar)S(Dpr-N-dec)FLSPEHQKAQQRK(N-palm)ES] |
| 34 | 3.38 |  |  | [Sar]S[Dap](Myristoyl)FLSPEHQKAQQRKES [ghrelin analog no. 18, (Sar)S(Dpr-N-myr)FLSPEHQKAQQRKES] |
| 30 | 3.71 |  |  | [Sar]S[Dap](Decanoyl)FLSPEHQKAQQRKES [ghrelin analog no. 17, (Sar)S(Dpr-N-dec)FLSPEHQKAQQRKES] |
| 2 | 51 |  |  | [Sar]S[Dap](Myristoyl)FLSPEHQKAQQRK(Palmitoyl)ES [ghrelin analog no. 16, (Sar)S(Dpr-N-myr)FLSPEHQKAQQRK(N-palm)ES] |

Source: patent US20170044230A1 (USTAV ORGANICKE CHEMIE A BIOCHEMIE AV CR, V.V.I., priority 2014, published 2017)
